Test results from article PMC5339343, “Evaluation of Rint1 as a modifier of intestinal tumorigenesis and cancer risk” (PLoS ONE, 2017).

Experiments:
[1] = molecular target: T1, FLAG-tagged full-length human RINT1 I152M (human, UniProt Q6NUQ1 1-792, I152M); assay: co-IP; FLAG-RINT1 plasmids co-transfected with the UVRAG plasmid into HEK293T; lysate in TNE buffer (10 mM Tris acetate, 0.5% NP-40, 2 mM EDTA); anti-FLAG M2 affinity gel overnight, eluted with FLAG peptide; blot for UVRAG, quantified; details: partners not purified
T1 construct: The change copies a variant of the B6 mouse Rint1 allele into human RINT1; The results sentence on UVRAG prints I152T; the methods made only I152M; also called RINT1 n.456A>G (I152M); RINT1 I152M allele; source: HEK293T, transfected, in lysate
T1 sequence (Q6NUQ1 whole entry I152M): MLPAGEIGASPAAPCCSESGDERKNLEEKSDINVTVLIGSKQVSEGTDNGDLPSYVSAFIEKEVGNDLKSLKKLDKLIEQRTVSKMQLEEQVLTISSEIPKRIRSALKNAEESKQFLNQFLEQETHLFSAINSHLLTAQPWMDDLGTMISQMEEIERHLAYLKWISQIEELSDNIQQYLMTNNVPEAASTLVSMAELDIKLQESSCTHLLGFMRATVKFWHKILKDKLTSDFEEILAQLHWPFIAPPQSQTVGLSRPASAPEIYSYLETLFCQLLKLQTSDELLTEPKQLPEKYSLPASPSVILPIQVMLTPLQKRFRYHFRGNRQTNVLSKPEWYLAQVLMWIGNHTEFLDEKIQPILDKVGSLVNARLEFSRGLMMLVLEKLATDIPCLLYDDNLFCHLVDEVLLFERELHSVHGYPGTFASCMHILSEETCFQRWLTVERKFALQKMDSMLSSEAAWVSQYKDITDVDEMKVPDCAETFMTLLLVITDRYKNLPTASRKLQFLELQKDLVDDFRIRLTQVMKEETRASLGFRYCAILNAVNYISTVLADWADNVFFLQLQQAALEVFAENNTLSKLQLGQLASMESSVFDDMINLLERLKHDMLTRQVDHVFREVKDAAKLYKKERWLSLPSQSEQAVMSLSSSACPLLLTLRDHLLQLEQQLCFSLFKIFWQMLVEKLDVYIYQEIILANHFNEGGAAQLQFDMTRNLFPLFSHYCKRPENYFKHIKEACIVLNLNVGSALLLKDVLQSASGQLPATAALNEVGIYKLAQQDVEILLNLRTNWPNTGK

[2] = molecular target: T2, FLAG-tagged full-length human RINT1 I152M; I168T (human, UniProt Q6NUQ1 1-792, I152M | I168T); assay: as above; details: partners not purified
T2 construct: The results sentence on UVRAG prints I152T;I168T; the methods made only I152M and I168T together; also called RINT1 n.456A>G; n.503T>C (I152M and I168T); source: HEK293T, transfected, in lysate
T2 sequence (Q6NUQ1 whole entry I152M/I168T): as the sequence (Q6NUQ1 whole entry I152M) above, with I168T counted along it

fold change of UVRAG co-immunoprecipitation against wild-type RINT1 [1]: ≥ 2 fold | fold change of UVRAG co-immunoprecipitation against wild-type RINT1 [2]: ≥ 2 fold
B1: UVRAG expressed from pCl-neo-HA-hUVRAG (natural protein, human, UniProt Q9P2Y5 1-699, looked up)
chain: MSASASVGGPVPQPPPGPAAALPPGSAARALHVELPSQQRRLRHLRNIAARNIVNRNGHQLLDTYFTLHLCSTEKIYKEFYRSEVIKNSLNPTWRSLDFGIMPDRLDTSVSCFVVKIWGGKENIYQLLIEWKVCLDGLKYLGQQIHARNQNEIIFGLNDGYYGAPFEHKGYSNAQKTILLQVDQNCVRNSYDVFSLLRLHRAQCAIKQTQVTVQKIGKEIEEKLRLTSTSNELKKKSECLQLKILVLQNELERQKKALGREVALLHKQQIALQDKGSAFSAEHLKLQLQKESLNELRKECTAKRELFLKTNAQLTIRCRQLLSELSYIYPIDLNEHKDYFVCGVKLPNSEDFQAKDDGSIAVALGYTAHLVSMISFFLQVPLRYPIIHKGSRSTIKDNINDKLTEKEREFPLYPKGGEKLQFDYGVYLLNKNIAQLRYQHGLGTPDLRQTLPNLKNFMEHGLMVRCDRHHTSSAIPVPKRQSSIFGGADVGFSGGIPSPDKGHRKRASSENERLQYKTPPPSYNSALAQPVTTVPSMGETERKITSLSSSLDTSLDFSKENKKKGEDLVGSLNGGHANVHPSQEQGEALSGHRATVNGTLLPSEQAGSASVQLPGEFHPVSEAELCCTVEQAEEIIGLEATGFASGDQLEAFNCIPVDSAVAVECDEQVLGEFEEFSRRIYALNENVSSFRRPRRSSDK
notes: UVRAG, human (hUVRAG), from the plasmid pCl-neo-HA-hUVRAG (Itakura et al. 2008); Detected with an anti-UVRAG antibody; source: HEK293T, transfected, in lysate
